Measured values taken from US20240344124, “Quantum Dot-Enrichment of CRISPR-Associated (Cas) Proteins for Environmental RNA Enrichment” (The Government of the United States of America, as …, published 2024).

Biological target: T1, dLwaCas13a (LwaC2c2 R474A/R1046A double mutant); the text does not say whether the double or the quad mutant … (Leptotrichia wadei)
T1 chain: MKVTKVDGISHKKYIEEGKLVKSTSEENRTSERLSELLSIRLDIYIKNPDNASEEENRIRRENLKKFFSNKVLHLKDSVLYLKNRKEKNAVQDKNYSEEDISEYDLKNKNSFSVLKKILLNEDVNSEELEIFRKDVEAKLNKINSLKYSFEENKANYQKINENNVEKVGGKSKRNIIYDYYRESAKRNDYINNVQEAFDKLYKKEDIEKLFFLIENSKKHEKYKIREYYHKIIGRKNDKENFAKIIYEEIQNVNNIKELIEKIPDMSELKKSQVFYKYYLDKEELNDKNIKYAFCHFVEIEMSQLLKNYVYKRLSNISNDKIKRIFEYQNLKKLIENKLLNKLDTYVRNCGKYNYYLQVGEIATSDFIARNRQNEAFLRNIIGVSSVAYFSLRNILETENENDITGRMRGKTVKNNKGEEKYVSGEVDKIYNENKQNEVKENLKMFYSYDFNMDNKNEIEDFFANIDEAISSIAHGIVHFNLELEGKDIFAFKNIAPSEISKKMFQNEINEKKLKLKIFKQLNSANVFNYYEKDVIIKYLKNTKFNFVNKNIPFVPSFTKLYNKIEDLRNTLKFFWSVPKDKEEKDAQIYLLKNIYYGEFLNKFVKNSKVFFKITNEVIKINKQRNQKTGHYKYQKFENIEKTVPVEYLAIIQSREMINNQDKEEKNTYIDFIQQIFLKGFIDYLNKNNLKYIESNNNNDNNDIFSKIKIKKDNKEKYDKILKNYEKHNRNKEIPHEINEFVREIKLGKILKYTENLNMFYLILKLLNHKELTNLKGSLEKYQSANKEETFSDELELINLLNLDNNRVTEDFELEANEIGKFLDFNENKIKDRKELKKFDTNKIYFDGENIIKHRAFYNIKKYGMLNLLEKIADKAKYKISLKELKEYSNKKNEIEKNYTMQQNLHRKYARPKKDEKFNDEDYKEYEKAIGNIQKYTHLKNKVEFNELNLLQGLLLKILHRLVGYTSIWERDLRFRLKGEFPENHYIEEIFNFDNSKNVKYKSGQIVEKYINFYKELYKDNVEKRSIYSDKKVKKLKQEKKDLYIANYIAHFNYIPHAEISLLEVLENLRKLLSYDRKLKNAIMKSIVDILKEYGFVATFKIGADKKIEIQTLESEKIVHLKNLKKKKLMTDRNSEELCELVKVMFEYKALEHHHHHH
Test: pulldown; […]; 50 mM Tris pH 8, NaCl, 10 mM MgCl2, 37 C; […]
Details: tags: polyhistidine tag; GenScript

B1: cr7 crRNA ; shortened lcrV target RNA (237 nt) (ssRNA ; ssRNA)
RNA 1: GGGGAUUUAGACUACCCCAAAAACGAAGGGGACUAAAACAAUAUCUAUAUUUUUAUCUUUGACUAAC
RNA 2: AUUGAGGAUCUAGAAAAAGUUAGGGUGGAACAACUUACUGGUCAUGGUUCUUCAGUUUUAGAAGAAUUGGUUCAGUUAGUCAAAGAUAAAAAUAUAGAUAUUUCCAUUAAAUAUGAUCCCAGAAAAGAUUCGGAGGUUUUUGCCAAUAGAGUAAUUACUGAUGAUAUCGAAUUGCUCAAGAAAAUCCUAGCUUAUUUUCUACCCGAGGAUGCCAUUCUUAAAGGCGGUCAUUAUGAC
- binding result: binds
